{
  "source": "paper PMC11467389",
  "key": {"[1]": {"experiment": "Western blot of endogenous PDK1 in ST2 cells", "details": "glycan lost; control: rhWnt3a alone"}, "[2]": {"experiment": "MG132 6 h, Flag IP, ubiquitin blot", "details": "glycan lost; control: Flag-PDK1 WT"}, "[3]": {"experiment": "CHX chase, anti-Flag Western blot (half-life)", "details": "glycan lost; control: Flag-PDK1 WT"}, "[4]": {"experiment": "CHX chase of Flag-PDK1, Western blot (half-life)", "details": "glycan lost; control: rhWnt3a alone"}},
  "data": [
    {"substance": "PDK1 (pyruvate dehydrogenase kinase 1): DON", "values": [
      {"measurement": "expression_or_secretion", "setting": "[1]", "result": "decreases"}
    ]},
    {"substance": "PDK1 (pyruvate dehydrogenase kinase 1): S174A", "values": [
      {"measurement": "other: ubiquitination", "setting": "[2]", "result": "increases"},
      {"measurement": "degradation_or_half_life", "setting": "[3]", "result": "decreases"}
    ]},
    {"substance": "PDK1 (pyruvate dehydrogenase kinase 1): OSMI", "values": [
      {"measurement": "degradation_or_half_life", "setting": "[4]", "result": "decreases"}
    ]}
  ]
}
